Reference: patent publication US20140271457A1 (AbbVie / Abbott, published 2014)

Target: Recombinant Human IL-13 (human, UniProt P35225 35-146, limits assumed)
Experiment: cell-based or functional assay

Recombinant Human IL-13, sequence (P35225 35-146 limits assumed): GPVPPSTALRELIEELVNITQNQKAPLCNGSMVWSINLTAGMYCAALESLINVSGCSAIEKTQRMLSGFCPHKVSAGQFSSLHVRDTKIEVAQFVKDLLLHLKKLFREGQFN

| IL-13 Neutralization Assay IC50 [nM] | Binder |
| --- | --- |
| 0.587 | DVD3084 (bispecific antibody, human IgG1, kappa) heavy: not shown light: DIQMTQSPSSLSASVGDRVTITCRASQLVSSAVAWYQQKPGKAPKLLIYWASARHTGVPSRFSGSGSGTDFTLTISSLQPEDFATYYCQQHYKTPFTFGQGTKLEIKRTVAAPDVVMTQSPLSLPVTLGQPASISCRSSQSLVHSHGNTYLHWYQQRPGQSPRLLIYTVSNRFSGVPDRFSGSGSGTDFTLKISRVEAEDVGVYYCSQSTHVPYTFGGGTKVEIKRTVAAPSVFIFPPSDEQLKSGTASVVCLLNNFYPREAKVQWKVDNALQSGNSQESVTEQDSKDSTYSLSSTLTLSKADYEKHKVYACEVTHQGLSSPVTKSFNRGEC |
| 0.082 | DVD3087 (bispecific antibody, human IgG1, kappa) heavy: not shown light: DIQMTQSPSSLSASVGDRVTITCRASQLVSSAVAWYQQKPGKAPKLLIYWASARHTGVPSRFSGSGSGTDFTLTISSLQPEDFATYYCQQHYKTPFTFGQGTKLEIKRTVAAPDVVMTQSPLSLPVTLGQPASISCRSSQSLVHSHGNTYLHWYQQRPGQSPRLLIYTVSNRFSGVPDRFSGSGSGTDFTLKISRVEAEDVGVYYCSQSTHVPYTFGGGTKVEIKRTVAAPSVFIFPPSDEQLKSGTASVVCLLNNFYPREAKVQWKVDNALQSGNSQESVTEQDSKDSTYSLSSTLTLSKADYEKHKVYACEVTHQGLSSPVTKSFNRGEC |
| 0.072 | DVD3097 (bispecific antibody) heavy: not shown light: DIQMTQSPSSLSASVGDRVTITCKASQLVSSAVAWYQQKPGKAPKLLIYWASTLHTGVPSRFSGSGSGTDFTLTISSLQPEDFATYYCQQHYRTPFTFGQGTKLEIKRTVAAPDVVMTQSPLSLPVTLGQPASISCRSSQSLVHSHGNTYLHWYQQRPGQSPRLLIYTVSNRFSGVPDRFSGSGSGTDFTLKISRVEAEDVGVYYCSQSTHVPYTFGGGTKVEIKRTVAAPSVFIFPPSDEQLKSGTASVVCLLNNFYPREAKVQWKVDNALQSGNSQESVTEQDSKDSTYSLSSTLTLSKADYEKHKVYACEVTHQGLSSPVTKSFNRGEC |
| 0.444 | DVD3094 (bispecific antibody) heavy: not shown light: DIQMTQSPSSLSASVGDRVTITCKASQLVSSAVAWYQQKPGKAPKLLIYWASTLHTGVPSRFSGSGSGTDFTLTISSLQPEDFATYYCQQHYRTPFTFGQGTKLEIKRTVAAPDVVMTQSPLSLPVTLGQPASISCRSSQSLVHSHGNTYLHWYQQRPGQSPRLLIYTVSNRFSGVPDRFSGSGSGTDFTLKISRVEAEDVGVYYCSQSTHVPYTFGGGTKVEIKRTVAAPSVFIFPPSDEQLKSGTASVVCLLNNFYPREAKVQWKVDNALQSGNSQESVTEQDSKDSTYSLSSTLTLSKADYEKHKVYACEVTHQGLSSPVTKSFNRGEC |
| 0.098 | DVD3083 (bispecific antibody, human IgG1, kappa) heavy: not shown light: DIQMTQSPSSLSASVGDRVTITCRASQLVSSAVAWYQQKPGKAPKLLIYWASARHTGVPSRFSGSGSGTDFTLTISSLQPEDFATYYCQQHYKTPFTFGQGTKLEIKRGGSGGGGSGDVVMTQSPLSLPVTLGQPASISCRSSQSLVHSHGNTYLHWYQQRPGQSPRLLIYTVSNRFSGVPDRFSGSGSGTDFTLKISRVEAEDVGVYYCSQSTHVPYTFGGGTKVEIKRTVAAPSVFIFPPSDEQLKSGTASVVCLLNNFYPREAKVQWKVDNALQSGNSQESVTEQDSKDSTYSLSSTLTLSKADYEKHKVYACEVTHQGLSSPVTKSFNRGEC |
| 0.067 | DVD3093 (bispecific antibody) heavy: not shown light: DIQMTQSPSSLSASVGDRVTITCKASQLVSSAVAWYQQKPGKAPKLLIYWASTLHTGVPSRFSGSGSGTDFTLTISSLQPEDFATYYCQQHYRTPFTFGQGTKLEIKRGGSGGGGSGDVVMTQSPLSLPVTLGQPASISCRSSQSLVHSHGNTYLHWYQQRPGQSPRLLIYTVSNRFSGVPDRFSGSGSGTDFTLKISRVEAEDVGVYYCSQSTHVPYTFGGGTKVEIKRTVAAPSVFIFPPSDEQLKSGTASVVCLLNNFYPREAKVQWKVDNALQSGNSQESVTEQDSKDSTYSLSSTLTLSKADYEKHKVYACEVTHQGLSSPVTKSFNRGEC |
| 0.056 | DVD3091 (bispecific antibody, human IgG1, kappa) heavy: not shown light: DVVMTQSPLSLPVTLGQPASISCRSSQSLVHSHGNTYLHWYQQRPGQSPRLLIYTVSNRFSGVPDRFSGSGSGTDFTLKISRVEAEDVGVYYCSQSTHVPYTFGGGTKVEIKRTVAAPSVFIFPPDIQMTQSPSSLSASVGDRVTITCRASQLVSSAVAWYQQKPGKAPKLLIYWASARHTGVPSRFSGSGSGTDFTLTISSLQPEDFATYYCQQHYKTPFTFGQGTKLEIKRTVAAPSVFIFPPSDEQLKSGTASVVCLLNNFYPREAKVQWKVDNALQSGNSQESVTEQDSKDSTYSLSSTLTLSKADYEKHKVYACEVTHQGLSSPVTKSFNRGEC |
| 0.037 | DVD3101 (bispecific antibody, human IgG1, kappa) heavy: not shown light: DVVMTQSPLSLPVTLGQPASISCRSSQSLVHSHGNTYLHWYQQRPGQSPRLLIYTVSNRFSGVPDRFSGSGSGTDFTLKISRVEAEDVGVYYCSQSTHVPYTFGGGTKVEIKRTVAAPSVFIFPPDIQMTQSPSSLSASVGDRVTITCKASQLVSSAVAWYQQKPGKAPKLLIYWASTLHTGVPSRFSGSGSGTDFTLTISSLQPEDFATYYCQQHYRTPFTFGQGTKLEIKRTVAAPSVFIFPPSDEQLKSGTASVVCLLNNFYPREAKVQWKVDNALQSGNSQESVTEQDSKDSTYSLSSTLTLSKADYEKHKVYACEVTHQGLSSPVTKSFNRGEC |
| 0.12 | DVD3086 (bispecific antibody, human IgG1, kappa) heavy: not shown light: DIQMTQSPSSLSASVGDRVTITCRASQLVSSAVAWYQQKPGKAPKLLIYWASARHTGVPSRFSGSGSGTDFTLTISSLQPEDFATYYCQQHYKTPFTFGQGTKLEIKRTVAAPSVFIFPPDVVMTQSPLSLPVTLGQPASISCRSSQSLVHSHGNTYLHWYQQRPGQSPRLLIYTVSNRFSGVPDRFSGSGSGTDFTLKISRVEAEDVGVYYCSQSTHVPYTFGGGTKVEIKRTVAAPSVFIFPPSDEQLKSGTASVVCLLNNFYPREAKVQWKVDNALQSGNSQESVTEQDSKDSTYSLSSTLTLSKADYEKHKVYACEVTHQGLSSPVTKSFNRGEC |
| 0.064 | DVD3096 (bispecific antibody) heavy: not shown light: DIQMTQSPSSLSASVGDRVTITCKASQLVSSAVAWYQQKPGKAPKLLIYWASTLHTGVPSRFSGSGSGTDFTLTISSLQPEDFATYYCQQHYRTPFTFGQGTKLEIKRTVAAPSVFIFPPDVVMTQSPLSLPVTLGQPASISCRSSQSLVHSHGNTYLHWYQQRPGQSPRLLIYTVSNRFSGVPDRFSGSGSGTDFTLKISRVEAEDVGVYYCSQSTHVPYTFGGGTKVEIKRTVAAPSVFIFPPSDEQLKSGTASVVCLLNNFYPREAKVQWKVDNALQSGNSQESVTEQDSKDSTYSLSSTLTLSKADYEKHKVYACEVTHQGLSSPVTKSFNRGEC |
| 0.103 | DVD3088 (bispecific antibody, human IgG1, kappa) heavy: not shown light: DVVMTQSPLSLPVTLGQPASISCRSSQSLVHSHGNTYLHWYQQRPGQSPRLLIYTVSNRFSGVPDRFSGSGSGTDFTLKISRVEAEDVGVYYCSQSTHVPYTFGGGTKVEIKRGGSGGGGSGDIQMTQSPSSLSASVGDRVTITCRASQLVSSAVAWYQQKPGKAPKLLIYWASARHTGVPSRFSGSGSGTDFTLTISSLQPEDFATYYCQQHYKTPFTFGQGTKLEIKRTVAAPSVFIFPPSDEQLKSGTASVVCLLNNFYPREAKVQWKVDNALQSGNSQESVTEQDSKDSTYSLSSTLTLSKADYEKHKVYACEVTHQGLSSPVTKSFNRGEC |
| 0.059 | DVD3098 (bispecific antibody, human IgG1, kappa) heavy: not shown light: DVVMTQSPLSLPVTLGQPASISCRSSQSLVHSHGNTYLHWYQQRPGQSPRLLIYTVSNRFSGVPDRFSGSGSGTDFTLKISRVEAEDVGVYYCSQSTHVPYTFGGGTKVEIKRGGSGGGGSGDIQMTQSPSSLSASVGDRVTITCKASQLVSSAVAWYQQKPGKAPKLLIYWASTLHTGVPSRFSGSGSGTDFTLTISSLQPEDFATYYCQQHYRTPFTFGQGTKLEIKRTVAAPSVFIFPPSDEQLKSGTASVVCLLNNFYPREAKVQWKVDNALQSGNSQESVTEQDSKDSTYSLSSTLTLSKADYEKHKVYACEVTHQGLSSPVTKSFNRGEC |
| 0.074 | DVD3089 (bispecific antibody, human IgG1, kappa) heavy: not shown light: DVVMTQSPLSLPVTLGQPASISCRSSQSLVHSHGNTYLHWYQQRPGQSPRLLIYTVSNRFSGVPDRFSGSGSGTDFTLKISRVEAEDVGVYYCSQSTHVPYTFGGGTKVEIKRTVAAPDIQMTQSPSSLSASVGDRVTITCRASQLVSSAVAWYQQKPGKAPKLLIYWASARHTGVPSRFSGSGSGTDFTLTISSLQPEDFATYYCQQHYKTPFTFGQGTKLEIKRTVAAPSVFIFPPSDEQLKSGTASVVCLLNNFYPREAKVQWKVDNALQSGNSQESVTEQDSKDSTYSLSSTLTLSKADYEKHKVYACEVTHQGLSSPVTKSFNRGEC |
| 0.014 | DVD3099 (bispecific antibody, human IgG1, kappa) heavy: not shown light: DVVMTQSPLSLPVTLGQPASISCRSSQSLVHSHGNTYLHWYQQRPGQSPRLLIYTVSNRFSGVPDRFSGSGSGTDFTLKISRVEAEDVGVYYCSQSTHVPYTFGGGTKVEIKRTVAAPDIQMTQSPSSLSASVGDRVTITCKASQLVSSAVAWYQQKPGKAPKLLIYWASTLHTGVPSRFSGSGSGTDFTLTISSLQPEDFATYYCQQHYRTPFTFGQGTKLEIKRTVAAPSVFIFPPSDEQLKSGTASVVCLLNNFYPREAKVQWKVDNALQSGNSQESVTEQDSKDSTYSLSSTLTLSKADYEKHKVYACEVTHQGLSSPVTKSFNRGEC |
| 0.06 | DVD3092 (bispecific antibody, human IgG1, kappa) heavy: not shown light: DVVMTQSPLSLPVTLGQPASISCRSSQSLVHSHGNTYLHWYQQRPGQSPRLLIYTVSNRFSGVPDRFSGSGSGTDFTLKISRVEAEDVGVYYCSQSTHVPYTFGGGTKVEIKRTVAAPDIQMTQSPSSLSASVGDRVTITCRASQLVSSAVAWYQQKPGKAPKLLIYWASARHTGVPSRFSGSGSGTDFTLTISSLQPEDFATYYCQQHYKTPFTFGQGTKLEIKRTVAAPSVFIFPPSDEQLKSGTASVVCLLNNFYPREAKVQWKVDNALQSGNSQESVTEQDSKDSTYSLSSTLTLSKADYEKHKVYACEVTHQGLSSPVTKSFNRGEC |
| 0.025 | DVD3102 (bispecific antibody, human IgG1, kappa) heavy: not shown light: DVVMTQSPLSLPVTLGQPASISCRSSQSLVHSHGNTYLHWYQQRPGQSPRLLIYTVSNRFSGVPDRFSGSGSGTDFTLKISRVEAEDVGVYYCSQSTHVPYTFGGGTKVEIKRTVAAPDIQMTQSPSSLSASVGDRVTITCKASQLVSSAVAWYQQKPGKAPKLLIYWASTLHTGVPSRFSGSGSGTDFTLTISSLQPEDFATYYCQQHYRTPFTFGQGTKLEIKRTVAAPSVFIFPPSDEQLKSGTASVVCLLNNFYPREAKVQWKVDNALQSGNSQESVTEQDSKDSTYSLSSTLTLSKADYEKHKVYACEVTHQGLSSPVTKSFNRGEC |
